Literature values as cited in US9163073B2, “Chemically and thermodynamically stable insulin analogues and improved methods for their production” (AMIDEBIO LLC, priority 2013, dated 2015).

Columns and labels:
breast cancer = details: in vivo
[1] = after one year in acidic formulations
[2] = target: insulin receptor over the IGF-1R (Homo sapiens, UniProt P06213)

| Substance | induction of breast cancer (breast cancer) | AsnA21 deamidation [1] | selectivity for its own receptor over the IGF-1R [2] [fold] |
| --- | --- | --- | --- |
| AspB10 insulin: insulin analogue with AspB10 substitution, relatively high affinity for the IGF-1R | induce breast cancer | – | – |
| native insulin: native two-chain human insulin (A chain SEQ ID NO 2, B chain SEQ ID NO 3) | – | 20-30% | > 100 |
